Experimental data published in patent US20260174875A1 (Novo Nordisk A/S, priority 2023, published 2026).
Numbered stars: 1 amine (or outer) side, 2 acyl side, 3 side chain; on linkers, the order of the positions; unused ones are H or OH. Square brackets hold non-standard residues; d marks the D form. Side chains are listed from the residue outwards. * marks the point of attachment. C20 diacid = O=C(O)CCCCCCCCCCCCCCCCCCC(=O)*; γGlu = O=C(O)[C@H](CCC(=O)[*:2])N[*:1]; Chem. 27 = not defined here; AEEA = NCCOCCOCC(=O)O; Aib = CC(C)(N)C(=O)O

T1: human GIP receptor (human, UniProt P48546 22-466)
T1 sequence (looked up): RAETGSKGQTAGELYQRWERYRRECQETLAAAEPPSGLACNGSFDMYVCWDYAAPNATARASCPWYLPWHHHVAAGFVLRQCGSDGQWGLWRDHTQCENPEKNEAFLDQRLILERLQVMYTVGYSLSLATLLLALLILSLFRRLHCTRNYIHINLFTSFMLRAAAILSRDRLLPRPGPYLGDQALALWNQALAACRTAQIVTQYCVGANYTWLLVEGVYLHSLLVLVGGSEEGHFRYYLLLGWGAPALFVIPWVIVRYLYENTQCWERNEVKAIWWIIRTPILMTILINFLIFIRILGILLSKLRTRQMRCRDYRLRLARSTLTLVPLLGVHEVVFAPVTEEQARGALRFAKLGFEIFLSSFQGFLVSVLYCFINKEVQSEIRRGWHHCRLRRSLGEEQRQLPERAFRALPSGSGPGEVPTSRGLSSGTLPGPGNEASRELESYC

T2: human amylin-3(a) receptor (human, UniProt P30988 25-474; O60896 24-148)
T2 sequence (looked up) 1: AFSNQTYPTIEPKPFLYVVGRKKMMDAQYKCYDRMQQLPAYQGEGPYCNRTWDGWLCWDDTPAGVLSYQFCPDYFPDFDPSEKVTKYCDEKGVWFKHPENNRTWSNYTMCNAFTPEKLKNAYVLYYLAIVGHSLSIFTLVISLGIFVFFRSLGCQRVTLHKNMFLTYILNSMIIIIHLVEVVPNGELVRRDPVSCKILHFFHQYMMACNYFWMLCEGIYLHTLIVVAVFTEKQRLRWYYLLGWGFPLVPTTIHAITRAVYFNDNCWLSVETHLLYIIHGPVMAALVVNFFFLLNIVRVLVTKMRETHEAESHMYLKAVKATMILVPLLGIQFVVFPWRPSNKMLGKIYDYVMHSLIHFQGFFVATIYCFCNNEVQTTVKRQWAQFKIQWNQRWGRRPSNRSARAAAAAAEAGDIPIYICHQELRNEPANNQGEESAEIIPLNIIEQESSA
T2 sequence (looked up) 2: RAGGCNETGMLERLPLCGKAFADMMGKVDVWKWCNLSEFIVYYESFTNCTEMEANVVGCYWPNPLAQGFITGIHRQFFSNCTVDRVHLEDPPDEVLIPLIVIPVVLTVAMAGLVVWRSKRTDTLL

B1: Compound 115 (peptide)
peptide: Y[Aib]EGTFTSDYSILLEEQAAREFIEWLLAGGPSSGAGQAPGQAPGASHLSTAQTQRLSAELHK([AEEA-AEEA-γGlu-C20 diacid])LATLPRTETGSGSP-NH2
B2: Compound 189 (peptide)
peptide: Y[Aib]EGTFTSDYSILLEEIAAREFIEWLLAGGPSSGAGEAPGEAPGASHLSTAQTQRLSAELHK(Chem. 27)LATLPRTETGSGSP-NH2
modifications: reading uncertain
B3: Compound 181 (peptide)
peptide: Y[Aib]EGTFTSDYSILLEEIAAREFIEWLLAGGPSSEAGASQLSTAQTQRLSAELHK(Chem. 27)LATLPRTETGSGSP-NH2
modifications: reading uncertain
B4: Compound 179 (peptide)
peptide: Y[Aib]EGTFTSDYSILLEEIAAREFIEWLLAGGPSSGAGASHLSTAQTQRLSAELHK(Chem. 27)LATEPRTETGSGSP-NH2
modifications: reading uncertain
B5: Compound 183 (peptide)
peptide: Y[Aib]EGTFTSDYSK(Chem. 27)LLEEIAAREFIEWLLAGGPSSGAGASELSTAQLGRLSAELHQLATLPRTETGSGSP-NH2
modifications: reading uncertain
B6: Compound 176 (peptide)
peptide: Y[Aib]EGTFTSDYSILLEEIAAREFIEWLLAGGPSSGAGASELSTAQTQRLSAELHK(Chem. 27)LATLPRTETGSGSP-NH2
modifications: reading uncertain

Molecular target: T1, human GIP receptor
Experiment: cell-based or functional assay
Settings: not given

Molecule | hGIPR Potency, no HSA, EC50 [pM]
B1 | 10.3 pM
B2 | 3.18 pM
B3 | 3.25 pM
B4 | 4.36 pM
B5 | 2 pM
B6 | 3.66 pM

Molecular target: T3, human GLP-1 receptor (human, UniProt P43220 24-463)
Experiment: cell-based or functional assay
Settings: not given

Molecule | hGLP-1R Potency, no HSA, EC50 [pM]
B1 | 19.4 pM
B2 | 26.9 pM
B3 | 28.8 pM
B4 | 23.3 pM
B6 | 29.9 pM

Molecular target: T2, human amylin-3(a) receptor
Experiment: cell-based or functional assay
Settings: not given

Molecule | hAMYR3 Potency, no HSA, EC50 [pM]
B1 | 7.13 pM
B2 | 12.7 pM
B3 | 8.46 pM
B4 | 10 pM
B5 | 6.2 pM
B6 | 11.2 pM

Molecular target: T1, human GIP receptor
Experiment: cell-based or functional assay
Settings: not given
Remark: another data set of the same source

Molecule | hGIPR Potency, 1% HSA, EC50 [pM]
B1 | 38.9 pM
B2 | 9.18 pM
B3 | 20.1 pM
B4 | 25.5 pM
B5 | 71.4 pM
B6 | 23.8 pM

Molecular target: T3, human GLP-1 receptor
Experiment: cell-based or functional assay
Settings: not given
Remark: another data set of the same source

Molecule | hGLP-1R Potency, 1% HSA, EC50 [pM]
B1 | 92.9 pM
B2 | 81.9 pM
B3 | 134 pM
B4 | 170 pM
B5 | 744 pM
B6 | 178 pM

Molecular target: T2, human amylin-3(a) receptor
Experiment: cell-based or functional assay
Settings: not given
Remark: another data set of the same source

Molecule | hAMYR3 Potency, 1% HSA, EC50 [pM]
B1 | 551 pM
B2 | 1210 pM
B3 | 1300 pM
B4 | 1350 pM
B5 | 108 pM
B6 | 798 pM

System: not given
Experiment: not given
Settings: endogenous hormone; cited from earlier work

Molecule | half-life
Amylin (KCNTATCATQRLANFLVHSSNNFGAILSSTNVGSNTY; Islet amyloid polypeptide; UniProt P10997 34-70, looked up) ["a 37-amino acid long polypeptide hormone produced in pancreatic beta (β)-cell from where it is co-secreted with insulin"] | 15 to 20 min
